# Source: patent US20160053014A1
# B1: SAR113244 (antibody, from another filing, V domains shown)
# VH: QVQLKESGPGLVAPSESLSITCTVSGFSLIDYGVNWIRQPPGKGLEWLGVIWGDGTTYYNPSLKSRLSISKDNSKSQVFLKVTSLTTDDTAMYYCARIVYWGQGTLVTVSA
# VL: DIVMTQAAPSVAVTPGASVSISCRSSKSLLHSSGKTYLYWFLQRPGQSPQLLIYRLSSLASGVPDRFSGSGSGTAFTLRISRVEAEDVGVYYCMQHLEYPYTFGGGTKLEIKR
# Target: human CXCR5 (human) (UniProt P32302)
# Test: cell-based or functional assay
# human CXCR5 (human), sequence (P32302 whole entry): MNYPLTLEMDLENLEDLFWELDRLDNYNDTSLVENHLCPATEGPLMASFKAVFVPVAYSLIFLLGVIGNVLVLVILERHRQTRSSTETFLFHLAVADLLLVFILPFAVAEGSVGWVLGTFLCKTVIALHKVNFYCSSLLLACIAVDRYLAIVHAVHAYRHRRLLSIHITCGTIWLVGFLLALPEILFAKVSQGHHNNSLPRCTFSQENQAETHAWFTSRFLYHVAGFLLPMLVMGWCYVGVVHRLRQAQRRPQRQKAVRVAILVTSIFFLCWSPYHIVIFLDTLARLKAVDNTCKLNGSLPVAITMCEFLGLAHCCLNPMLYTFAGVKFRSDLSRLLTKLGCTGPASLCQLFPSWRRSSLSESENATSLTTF
binder,measurement,value
B1,IC50 [nM] of mAbs in chemotaxis assay using HS-Sultan cells (25 nM CXCL13),4.7 nM
